US20240132578A1

Assays:
[1] = target: HIV-1 Env of isolate MGRM-D-020 (clade D pseudovirus) (HIV-1); assay: cell-based or functional assay
[2] = target: HIV-1 Env of pseudovirus MGRM-F1-006 (clade F) (HIV-1); assay: cell-based or functional assay
[3] = target: HIV-1 envelope glycoprotein (Env) of isolate MGRM-C-006 (HIV-1); assay: cell-based or functional assay
[4] = target: HIV-1 Env of isolate JRCSF (Clade B) (HIV-1) (UniProt P20871); assay: cell-based or functional assay
[5] = target: HIV-1 Env of isolate TRJ0.58 (Acute), clade B (HIV-1); assay: cell-based or functional assay
[6] = target: HIV-1 MGRM-AE-008 Env (pseudovirus) (HIV-1); assay: cell-based or functional assay
[7] = target: HIV-1 Env of isolate MGRM-D-024 (clade D pseudovirus) (HIV-1); assay: cell-based or functional assay
[8] = target: HIV-1 Env of isolate 92UG031 (clade A pseudovirus) (HIV-1); assay: cell-based or functional assay
[9] = target: HIV-1 Env of isolate 6535.3 (Acute), clade B (HIV-1); assay: cell-based or functional assay
[10] = target: HIV-1 Env of isolate MGRM-A-006 (clade A pseudovirus) (HIV-1); assay: cell-based or functional assay
[11] = target: HIV-1 MGRM-AE-006 Env (pseudovirus) (HIV-1); assay: cell-based or functional assay
[12] = target: HIV-1 Env of isolate MGRM-Chronic-B-003, clade B (HIV-1); assay: cell-based or functional assay
[13] = target: HIV-1 JR-CSF Env I415A (HIV-1 (isolate JR-CSF)) (UniProt P20871); assay: cell-based or functional assay
[14] = target: HIV-1 JR-CSF Env T413A (HIV-1 (isolate JR-CSF)) (UniProt P20871); assay: cell-based or functional assay
[15] = target: HIV-1 Env of isolate MGRM-F1-013 (pseudovirus) (HIV-1); assay: cell-based or functional assay
[16] = target: HIV-1 JR-CSF Env I420A (HIV-1 (isolate JR-CSF)) (UniProt P20871); assay: cell-based or functional assay
[17] = target: HIV-1 envelope glycoprotein (Env) of isolate MG RM-A-014, subtype A (HIV-1); assay: cell-based or functional assay
[18] = target: HIV-1 envelope glycoprotein (Env) of isolate 6535.3, on pseudovirus (HIV-1); assay: cell-based or functional assay
[19] = target: HIV-1 MGRM-D-001 envelope protein (Env) on pseudovirus (HIV-1); assay: cell-based or functional assay
[20] = target: HIV-1 92BR020 Env (HIV-1); assay: cell-based or functional assay
[21] = target: HIV-1 envelope glycoprotein (Env) of isolate JR-FL, on pseudovirus (HIV-1); assay: cell-based or functional assay
[22] = target: HIV-1 Env of isolate MGRM-AG-011 (pseudovirus) (HIV-1); assay: cell-based or functional assay
[23] = target: HIV-1 Env of isolate MGRM-AG-005 (pseudovirus) (HIV-1); assay: cell-based or functional assay
[24] = target: HIV-1 JR-CSF Env P313A (HIV-1 (isolate JR-CSF, clade B)) (UniProt P20871); assay: cell-based or functional assay
[25] = target: JR-FL gp120 ΔV1/ΔV2 (HIV-1 JR-FL); assay: ELISA, antigen-coated wells, mAb titrated; EC50 by nonlinear regression
[26] = target: HIV-1 JR-CSF Env N301A (HIV-1 (isolate JR-CSF, clade B)) (UniProt P20871); assay: cell-based or functional assay
[27] = target: HIV-1 Env of isolate MGRM-A-012 (subtype A) (HIV-1); assay: cell-based or functional assay
[28] = target: HIV-1 Env of isolate MGRM-D-014 (pseudovirus) (HIV-1); assay: cell-based or functional assay
[29] = target: HIV-1 Env of pseudovirus isolate MGRM-C-019 (clade C) (HIV-1); assay: cell-based or functional assay
[30] = target: HIV-1 Env of pseudovirus isolate MGRM-C-015 (clade C) (HIV-1); assay: cell-based or functional assay
[31] = target: HIV-1 Env of pseudovirus isolate MGRM-C-009 (clade C) (HIV-1); assay: cell-based or functional assay
[32] = target: HIV-1 Env of isolate MGRM-A-010 (subtype A) (HIV-1); assay: cell-based or functional assay
[33] = target: HIV-1 Env of isolate MGRM-D-024 (HIV-1); assay: cell-based or functional assay
[34] = target: HIV-1 Env of isolate MGRM-D-016 (pseudovirus) (HIV-1); assay: cell-based or functional assay
[35] = target: HIV-1 Env of isolate MGRM-F1-023 (HIV-1); assay: cell-based or functional assay
[36] = target: HIV-1 Env of isolate MGRM-AG-002 (subtype AG) (HIV-1); assay: cell-based or functional assay
[37] = target: HIV-1 Env of pseudovirus isolate MGRM-C-013 (clade C) (HIV-1); assay: cell-based or functional assay

Substance | IC50, pseudovirus neutralization [1] | IC50 [2] | IC50 (µg/ml), pseudovirus neutralization [3] | IC90 (neutralization of pseudovirus) [4] | IC50 (µg/ml), pseudovirus neutralization [5] | IC50 (µg/ml), pseudovirus neutralization [6] | IC50, pseudovirus neutralization [7] | IC50 (µg/ml), pseudovirus neutralization [8] | IC50 (µg/ml), pseudovirus neutralization [9] | IC50 (µg/ml), pseudovirus neutralization [10] | IC50 (µg/ml), pseudovirus neutralization [11] | IC50 (µg/ml), pseudovirus neutralization [12] | Fold IC50 increase relative to wild-type (pseudovirus neutralization) [13] | Fold IC50 increase relative to wild-type (pseudovirus neutralization) [14] | IC50 (µg/mL), pseudovirus neutralization [15] | Fold IC50 increase relative to wild-type (pseudovirus neutralization) [16] | IC50, pseudovirus neutralization [17] | IC50, pseudovirus neutralization [18] | IC50 (ug/mL), pseudovirus neutralization [19] | IC50, pseudovirus neutralization [20] | further results
4E10 (antibody) | > 50 µg/mL | 1.01 µg/mL | 4.94 µg/mL | 44.1 µg/mL | 11.9 µg/mL | 0.94 µg/mL | 3.6 µg/mL | 4.94 µg/mL | 1.23 µg/mL | 9.87 µg/mL | 0.23 µg/mL | 3.5 µg/mL | – | – | – | – | – | – | – | – | –
4858_P08 (PGT-123) (antibody) | – | – | – | – | – | – | – | – | – | – | – | – | 0.4 fold | 0.4 fold | 0.08 µg/mL | 3.2 fold | 0.003 µg/mL | 0.004 µg/mL | 0.215 µg/mL | 0.013 µg/mL | IC50, pseudovirus neutralization [21]: 0.014 µg/mL; IC50 (µg/mL), pseudovirus neutralization [22]: > 50 µg/mL; IC50 (µg/mL), pseudovirus neutralization [23]: 0.149 µg/mL; Fold IC50 increase relative to wild-type [24]: 0.2 fold; EC50 [25]: 0.3 µg/mL
b12 (antibody) | > 50 µg/mL | > 50 µg/mL | > 50 µg/mL | 1.17 µg/mL | > 50 µg/mL | > 50 µg/mL | 5.92 µg/mL | > 50 µg/mL | 1.93 µg/mL | 13.6 µg/mL | > 50 µg/mL | > 50 µg/mL | – | – | – | – | – | – | – | – | –
1495_C14 (PGC14) (antibody) | > 50 µg/mL | > 50 µg/mL | > 50 µg/mL | – | > 50 µg/mL | > 50 µg/mL | > 50 µg/mL | > 50 µg/mL | 35 µg/mL | > 50 µg/mL | > 50 µg/mL | > 50 µg/mL | – | – | – | – | – | – | – | – | –
2G12 (antibody) | > 50 µg/mL | > 50 µg/mL | > 50 µg/mL | 5.38 µg/mL | > 50 µg/mL | > 50 µg/mL | > 50 µg/mL | > 50 µg/mL | 3.85 µg/mL | 13.8 µg/mL | > 50 µg/mL | 0.06 µg/mL | – | – | – | – | – | – | – | – | –
2F5 (antibody) | > 50 µg/mL | 1.1 µg/mL | > 50 µg/mL | 25.3 µg/mL | > 50 µg/mL | > 50 µg/mL | > 50 µg/mL | 3.81 µg/mL | 2.76 µg/mL | 15.7 µg/mL | 0.18 µg/mL | 1 µg/mL | – | – | – | – | – | – | – | – | –
5141_B17 (PGT-126) (antibody) | – | – | – | – | – | – | – | – | – | – | – | – | 0.3 fold | 0.7 fold | > 50 µg/mL | 0.6 fold | 0.01 µg/mL | 0.022 µg/mL | 0.0639 µg/mL | 0.0163 µg/mL | IC50, pseudovirus neutralization [21]: 0.014 µg/mL; IC50 (µg/mL), pseudovirus neutralization [22]: 24.5 µg/mL; IC50 (µg/mL), pseudovirus neutralization [23]: 1.21 µg/mL; Fold IC50 increase relative to wild-type [24]: 0.4 fold; Fold IC50 increase relative to wild-type [26]: 314 fold; EC50 [25]: 0.3 µg/mL
5145_B14 (PGT-127) (antibody) | – | – | – | – | – | – | – | – | – | – | – | – | 2.1 fold | 0.8 fold | > 50 µg/mL | 1.8 fold | 0.04 µg/mL | 0.02 µg/mL | – | – | IC50, pseudovirus neutralization [21]: 0.029 µg/mL; IC50 (µg/mL), pseudovirus neutralization [22]: > 50 µg/mL; IC50 (µg/mL), pseudovirus neutralization [23]: > 50 µg/mL; Fold IC50 increase relative to wild-type [24]: 1.3 fold; Fold IC50 increase relative to wild-type [26]: > 250 fold; EC50 [25]: 0.7 µg/mL
4877_D15 (PGT-122) (antibody) | – | – | – | – | – | – | – | – | – | – | – | – | – | – | 0.152 µg/mL | – | 0.007 µg/mL | 0.006 µg/mL | 0.867 µg/mL | 0.0337 µg/mL | IC50, pseudovirus neutralization [21]: 0.026 µg/mL; IC50 (µg/mL), pseudovirus neutralization [22]: > 50 µg/mL; IC50 (µg/mL), pseudovirus neutralization [23]: 33.9 µg/mL; EC50 [25]: 0.3 µg/mL
1443_C16 (PG16) (TCN-116) (antibody) | 16.3 µg/mL | 0.27 µg/mL | 2.62 µg/mL | 0.013 µg/mL | 1.16 µg/mL | 3.25 µg/mL | 0.02 µg/mL | 0.43 µg/mL | 36.9 µg/mL | > 50 µg/mL | 0.03 µg/mL | 0.19 µg/mL | – | – | – | – | – | – | – | – | –
5147_N06 (PGT-130) (antibody) | – | – | – | – | – | – | – | – | – | – | – | – | 0.6 fold | 0.6 fold | – | 9.8 fold | – | – | > 10 µg/mL | 1.12 µg/mL | IC50, pseudovirus neutralization [27]: > 50 µg/mL; IC50 (µg/mL), pseudovirus neutralization [28]: 0.061 µg/mL; IC50, pseudovirus neutralization [29]: 0.01 µg/mL; IC50, pseudovirus neutralization [30]: 0.344 µg/mL; IC50, pseudovirus neutralization [31]: > 50 µg/mL; IC50, pseudovirus neutralization [32]: 0.005 µg/mL; IC50 (µg/mL), pseudovirus neutralization [33]: > 50 µg/mL; IC50 (µg/mL), pseudovirus neutralization [34]: > 50 µg/mL; IC50 (µg/mL), pseudovirus neutralization [35]: 0.05 µg/mL; IC50, pseudovirus neutralization [36]: > 50 µg/mL; IC50, pseudovirus neutralization [37]: > 50 µg/mL; Fold IC50 increase relative to wild-type [24]: 0.3 fold; Fold IC50 increase relative to wild-type [26]: > 1000 fold
5123_A06 (PGT-125) (antibody) | – | – | – | – | – | – | – | – | – | – | – | – | 0.3 fold | 0.5 fold | > 50 µg/mL | 1.1 fold | 13.9 µg/mL | 0.01 µg/mL | 2.31 µg/mL | 0.0214 µg/mL | IC50, pseudovirus neutralization [21]: 0.009 µg/mL; IC50 (µg/mL), pseudovirus neutralization [22]: > 50 µg/mL; IC50 (µg/mL), pseudovirus neutralization [23]: > 50 µg/mL; Fold IC50 increase relative to wild-type [24]: 0.3 fold; Fold IC50 increase relative to wild-type [26]: 213 fold; EC50 [25]: 0.6 µg/mL
